Experimental data published in patent US20250236653A1 (published 2025).
Like-named read-outs stand apart in the source and are kept apart here.

T1: human OX40 (human, UniProt P43489 29-277)
T1 chain: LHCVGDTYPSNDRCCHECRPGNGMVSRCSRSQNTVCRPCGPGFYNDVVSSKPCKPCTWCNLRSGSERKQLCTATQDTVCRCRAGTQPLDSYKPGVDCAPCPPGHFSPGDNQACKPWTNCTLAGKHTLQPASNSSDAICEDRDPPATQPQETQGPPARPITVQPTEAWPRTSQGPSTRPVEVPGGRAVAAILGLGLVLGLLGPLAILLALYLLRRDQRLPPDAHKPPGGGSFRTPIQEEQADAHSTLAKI


How the values were obtained:
[1] = molecular target: T1, human OX40; test: flow cytometry
[2] = molecular target: T1, human OX40; test: flow cytometry

| EC50 [1] [nM] | EC50 [2] [nM] | Binder |
| --- | --- | --- |
| 538 |  | mono-mut23-20E5_V6 (Fc fusion) IWELKKDVYVVELDWYPDAPGEMVVLTCDTPEEDGITWTLDQSSEVLGSGKTLTIQVKEFGDAGQYTCHKGGEVLSHSLLLLHKKEDGIWSTDILKDQKEPKNKTFLRCEAKNYSGRFTCWWLTTISTDLTFSVKSSRGSSDPQGVTCGAATLSAERVRGDNKEYEYSVECQEDSACPAAEESLPIEVMVDAVHKLKYENYTSSFFIRDIIKPDPPKNLQLKPLKNSRQVEVSWEYPDTWSTPHSYFSLTFSVQVQGKSKREKKDRVFTDKTSATVICRKNASISVRAQDRYYSSSWSEWASVPCSGGGGSGGGGSGGGGSGGGGSGGGGSRNLPVATPDPGMFPCLHHSQNLLRAVSNMLQKARQTLEFSPCTSEEIDHEDITKDKTSTVEACLPLELTKNESCLNSRETSFITNGSCLASRKTSFMMALCLSSIYEDLKMYQVEFKTMNAKLLMDPKRQIFLDQNMLAVIDELMQALNFNSETVPQKSSLEEPDFYKTAIKLCILLHAFRIRAVTIDRVMSYLNASGGGGSGGGGSEPKSSDKTHTCPPCPAPEFEGGPSVFLFPPKPKDTLMISRTPEVTCVVVDVSHEDPEVKFNWYVDGVEVHNAKTKPREEQYNSTYRVVSVLTVLHQDWLNGKEYKCKVSNKALPASIEKTISKAKGQPREPQVCTLPPSRDELTKNQVSLSCAVKGFYPSDIAVEWESNGQPENNYKTTPPVLDSDGSFFLVSKLTVDKSRWQQGNVFSCSVMHEALHNHYTQKSLSLSPG heavy: QVQLVQSGAEVKKPGASVKVSCKASGYTFTSYVMHWVRQAPGQRLEWIGYINPYNDATKYNEKFKGRATLTSDKSASTAYMELSSLRSEDTAVYYCANYYGSSLSMDYWGQGTLVTVSSASTKGPSVFPLAPSSKSTSGGTAALGCLVKDYFPEPVTVSWNSGALTSGVHTFPAVLQSSGLYSLSSVVTVPSSSLGTQTYICNVNHKPSNTKVDKKVEPKSCDKTHTCPPCPAPEFEGGPSVFLFPPKPKDTLMISRTPEVTCVVVDVSHEDPEVKFNWYVDGVEVHNAKTKPREEQYNSTYRVVSVLTVLHQDWLNGKEYKCKVSNKALPASIEKTISKAKGQPREPQVYTLPPCRDELTKNQVSLWCLVKGFYPSDIAVEWESNGQPENNYKTTPPVLDSDGSFFLYSKLTVDKSRWQQGNVFSCSVMHEALHNHYTQKSLSLSPG light: not shown |
|  | 1880 | mono-mut23-12H3_V4 (Fc fusion) IWELKKDVYVVELDWYPDAPGEMVVLTCDTPEEDGITWTLDQSSEVLGSGKTLTIQVKEFGDAGQYTCHKGGEVLSHSLLLLHKKEDGIWSTDILKDQKEPKNKTFLRCEAKNYSGRFTCWWLTTISTDLTFSVKSSRGSSDPQGVTCGAATLSAERVRGDNKEYEYSVECQEDSACPAAEESLPIEVMVDAVHKLKYENYTSSFFIRDIIKPDPPKNLQLKPLKNSRQVEVSWEYPDTWSTPHSYFSLTFSVQVQGKSKREKKDRVFTDKTSATVICRKNASISVRAQDRYYSSSWSEWASVPCSGGGGSGGGGSGGGGSGGGGSGGGGSRNLPVATPDPGMFPCLHHSQNLLRAVSNMLQKARQTLEFSPCTSEEIDHEDITKDKTSTVEACLPLELTKNESCLNSRETSFITNGSCLASRKTSFMMALCLSSIYEDLKMYQVEFKTMNAKLLMDPKRQIFLDQNMLAVIDELMQALNFNSETVPQKSSLEEPDFYKTAIKLCILLHAFRIRAVTIDRVMSYLNASGGGGSGGGGSEPKSSDKTHTCPPCPAPEFEGGPSVFLFPPKPKDTLMISRTPEVTCVVVDVSHEDPEVKFNWYVDGVEVHNAKTKPREEQYNSTYRVVSVLTVLHQDWLNGKEYKCKVSNKALPASIEKTISKAKGQPREPQVCTLPPSRDELTKNQVSLSCAVKGFYPSDIAVEWESNGQPENNYKTTPPVLDSDGSFFLVSKLTVDKSRWQQGNVFSCSVMHEALHNHYTQKSLSLSPG heavy: QVQLVQSGAEVKKPGSSVKVSCKASGYTFKDYTMHWVRQAPGQGLEWIGGIYPNAGGSTYNQNFKDRVTLTADKSTSTAYMELSSLRSEDTAVYYCARMGYHGPHLDFDVWGQGTTVTVSSASTKGPSVFPLAPSSKSTSGGTAALGCLVKDYFPEPVTVSWNSGALTSGVHTFPAVLQSSGLYSLSSVVTVPSSSLGTQTYICNVNHKPSNTKVDKKVEPKSCDKTHTCPPCPAPEFEGGPSVFLFPPKPKDTLMISRTPEVTCVVVDVSHEDPEVKFNWYVDGVEVHNAKTKPREEQYNSTYRVVSVLTVLHQDWLNGKEYKCKVSNKALPASIEKTISKAKGQPREPQVYTLPPCRDELTKNQVSLWCLVKGFYPSDIAVEWESNGQPENNYKTTPPVLDSDGSFFLYSKLTVDKSRWQQGNVFSCSVMHEALHNHYTQKSLSLSPG light: DIQMTQSPSSLSASVGDRVTITCKASQDVGAAVAWYQQKPGKAPKLLIYWASTRHTGVPSRFSGSGSGTDFTLTISSLQPEDFATYYCQQYINYPLTFGGGTKVEIKRTVAAPSVFIFPPSDEQLKSGTASVVCLLNNFYPREAKVQWKVDNALQSGNSQESVTEQDSKDSTYSLSSTLTLSKADYEKHKVYACEVTHQGLSSPVTKSFNRGEC |
| 69.2 |  | mono-mut23-20E5_V4 (Fc fusion) IWELKKDVYVVELDWYPDAPGEMVVLTCDTPEEDGITWTLDQSSEVLGSGKTLTIQVKEFGDAGQYTCHKGGEVLSHSLLLLHKKEDGIWSTDILKDQKEPKNKTFLRCEAKNYSGRFTCWWLTTISTDLTFSVKSSRGSSDPQGVTCGAATLSAERVRGDNKEYEYSVECQEDSACPAAEESLPIEVMVDAVHKLKYENYTSSFFIRDIIKPDPPKNLQLKPLKNSRQVEVSWEYPDTWSTPHSYFSLTFSVQVQGKSKREKKDRVFTDKTSATVICRKNASISVRAQDRYYSSSWSEWASVPCSGGGGSGGGGSGGGGSGGGGSGGGGSRNLPVATPDPGMFPCLHHSQNLLRAVSNMLQKARQTLEFSPCTSEEIDHEDITKDKTSTVEACLPLELTKNESCLNSRETSFITNGSCLASRKTSFMMALCLSSIYEDLKMYQVEFKTMNAKLLMDPKRQIFLDQNMLAVIDELMQALNFNSETVPQKSSLEEPDFYKTAIKLCILLHAFRIRAVTIDRVMSYLNASGGGGSGGGGSEPKSSDKTHTCPPCPAPEFEGGPSVFLFPPKPKDTLMISRTPEVTCVVVDVSHEDPEVKFNWYVDGVEVHNAKTKPREEQYNSTYRVVSVLTVLHQDWLNGKEYKCKVSNKALPASIEKTISKAKGQPREPQVCTLPPSRDELTKNQVSLSCAVKGFYPSDIAVEWESNGQPENNYKTTPPVLDSDGSFFLVSKLTVDKSRWQQGNVFSCSVMHEALHNHYTQKSLSLSPG heavy: QVQLVQSGAEVKKPGASVKVSCKASGYTFTSYVMHWVRQAPGQRLEWIGYINPYNEGTKYNEKFKGRATLTSDKSASTAYMELSSLRSEDTAVYYCANYYGSSLSMDYWGQGTLVTVSSASTKGPSVFPLAPSSKSTSGGTAALGCLVKDYFPEPVTVSWNSGALTSGVHTFPAVLQSSGLYSLSSVVTVPSSSLGTQTYICNVNHKPSNTKVDKKVEPKSCDKTHTCPPCPAPEFEGGPSVFLFPPKPKDTLMISRTPEVTCVVVDVSHEDPEVKFNWYVDGVEVHNAKTKPREEQYNSTYRVVSVLTVLHQDWLNGKEYKCKVSNKALPASIEKTISKAKGQPREPQVYTLPPCRDELTKNQVSLWCLVKGFYPSDIAVEWESNGQPENNYKTTPPVLDSDGSFFLYSKLTVDKSRWQQGNVFSCSVMHEALHNHYTQKSLSLSPG light: not shown |
| 73 |  | mono-mut23-20E5_V5 (Fc fusion) IWELKKDVYVVELDWYPDAPGEMVVLTCDTPEEDGITWTLDQSSEVLGSGKTLTIQVKEFGDAGQYTCHKGGEVLSHSLLLLHKKEDGIWSTDILKDQKEPKNKTFLRCEAKNYSGRFTCWWLTTISTDLTFSVKSSRGSSDPQGVTCGAATLSAERVRGDNKEYEYSVECQEDSACPAAEESLPIEVMVDAVHKLKYENYTSSFFIRDIIKPDPPKNLQLKPLKNSRQVEVSWEYPDTWSTPHSYFSLTFSVQVQGKSKREKKDRVFTDKTSATVICRKNASISVRAQDRYYSSSWSEWASVPCSGGGGSGGGGSGGGGSGGGGSGGGGSRNLPVATPDPGMFPCLHHSQNLLRAVSNMLQKARQTLEFSPCTSEEIDHEDITKDKTSTVEACLPLELTKNESCLNSRETSFITNGSCLASRKTSFMMALCLSSIYEDLKMYQVEFKTMNAKLLMDPKRQIFLDQNMLAVIDELMQALNFNSETVPQKSSLEEPDFYKTAIKLCILLHAFRIRAVTIDRVMSYLNASGGGGSGGGGSEPKSSDKTHTCPPCPAPEFEGGPSVFLFPPKPKDTLMISRTPEVTCVVVDVSHEDPEVKFNWYVDGVEVHNAKTKPREEQYNSTYRVVSVLTVLHQDWLNGKEYKCKVSNKALPASIEKTISKAKGQPREPQVCTLPPSRDELTKNQVSLSCAVKGFYPSDIAVEWESNGQPENNYKTTPPVLDSDGSFFLVSKLTVDKSRWQQGNVFSCSVMHEALHNHYTQKSLSLSPG heavy: QVQLVQSGAEVKKPGASVKVSCKASGYTFTSYVMHWVRQAPGQRLEWIGYINPYNAGTKYNEKFKGRATLTSDKSASTAYMELSSLRSEDTAVYYCANYYGSSLSMDYWGQGTLVTVSSASTKGPSVFPLAPSSKSTSGGTAALGCLVKDYFPEPVTVSWNSGALTSGVHTFPAVLQSSGLYSLSSVVTVPSSSLGTQTYICNVNHKPSNTKVDKKVEPKSCDKTHTCPPCPAPEFEGGPSVFLFPPKPKDTLMISRTPEVTCVVVDVSHEDPEVKFNWYVDGVEVHNAKTKPREEQYNSTYRVVSVLTVLHQDWLNGKEYKCKVSNKALPASIEKTISKAKGQPREPQVYTLPPCRDELTKNQVSLWCLVKGFYPSDIAVEWESNGQPENNYKTTPPVLDSDGSFFLYSKLTVDKSRWQQGNVFSCSVMHEALHNHYTQKSLSLSPG light: not shown |
